The target of the assay is recombinant soluble empty (peptide free) HLA-DR1 (human). Briefly: fluorescence polarisation. The following applies: both partners purified.

Consider one molecule from PMC2580030 (PLoS ONE, 2008).

Ends that are not written are not given here.

B1: FAM-CLIP peptide (residues 87-101) (peptide)
peptide: {FAM}-PVSKMRMATPLLMQA
As for B1, the t1/2 is approximately 1.33 h.
